Test results taken from article PMC5725599, “Insights into substrate binding of ferulic acid esterases by arabinose and methyl hydroxycinnamate esters and molecular docking” (Scientific Reports, 2017).

Columns and labels:
[1] = substrate: COC(=O)/C=C/c1ccc(O)c(O)c1; assay: HPLC of released free acid, Michaelis-Menten nonlinear fit; assay type: biochemical, Aspergillus niger; conditions: 100 mM MOPS-NaOH pH 6.0, 45 °C, 30 min, substrate stock in DMSO
Text: (§1) HPLC of released free acid, Michaelis-Menten nonlinear fit on AnFaeA

[2] = substrate: COC(=O)/C=C/c1ccc(O)c(OC)c1; assay: as above; assay type: biochemical, Aspergillus niger; conditions: 100 mM MOPS-NaOH pH 6.0, 45 °C, 30 min, substrate stock in DMSO
Text: as §1

B1: AnFaeA (Aspergillus niger) (protein)
chain: ASTQGISEDLYNRLVEMATISQAAYADLCNIPSTIIKGEKIYNAQTDINGWILRDDTSKEIITVFRGTGSDTNLQLDTNYTLTPFDTLPQCNDCEVHGGYYIGWISVQDQVESLVKQQASQYPDYALTVTGHSLGASMAALTAAQLSATYDNVRLYTFGEPRSGNQAFASYMNDAFQVSSPETTQYFRVTHSNDGIPNLPPADEGYAHGGVEYWSVDPYSAQNTFVCTGDEVQCCEAQGGQGVNDAHTTYFGMTSGACTW
notes: recombinant, expressed in Pichia pastoris as described previously
- Km [1]: 870 ± 170 µM
- Km [2]: 1420 ± 260 µM
